Data taken from patent US20140206609A1 (Sanofi, published 2014).
Where two headings read alike, the source gives them in different places. *1 amine or outer side, *2 acyl side, *3 side chain or, on linkers, in order; H or OH if unused. Where no end group is shown, it is not given here. Side-chain parts run from the residue outwards. [ ]: non-standard residue; d: D form. The star is where a group is joined. γGlu = O=C(O)[C@H](CCC(=O)[*:2])N[*:1]; Palmitoyl = CCCCCCCCCCCCCCCC(=O)*; Aib = CC(C)(N)C(=O)O

T1: human GIP receptor (human, UniProt P48546 22-466)
T1 sequence (looked up): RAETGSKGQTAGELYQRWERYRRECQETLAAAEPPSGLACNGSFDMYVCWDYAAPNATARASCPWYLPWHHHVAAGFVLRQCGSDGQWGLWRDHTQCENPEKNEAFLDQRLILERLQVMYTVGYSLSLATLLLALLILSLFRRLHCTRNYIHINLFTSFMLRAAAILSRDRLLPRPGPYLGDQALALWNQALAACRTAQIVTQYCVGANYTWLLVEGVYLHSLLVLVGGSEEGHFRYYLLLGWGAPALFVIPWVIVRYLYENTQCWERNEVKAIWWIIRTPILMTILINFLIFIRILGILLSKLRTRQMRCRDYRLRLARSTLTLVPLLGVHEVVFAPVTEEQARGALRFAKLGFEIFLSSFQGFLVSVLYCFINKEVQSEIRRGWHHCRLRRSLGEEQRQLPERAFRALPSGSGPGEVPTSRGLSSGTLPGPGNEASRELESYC

B1: SEQ ID NO: 40 (peptide)
peptide: Y[Aib]QGTFTSDLSIQLESRAAQDFIEWLKAGGPSSGAPPPS-NH2
modifications: N-terminus assumed
SMILES: CC[C@H](C)[C@H](NC(=O)[C@H](Cc1ccccc1)NC(=O)[C@H](CC(=O)O)NC(=O)[C@H](CCC(N)=O)NC(=O)[C@H](C)NC(=O)[C@H](C)NC(=O)[C@H](CCCNC(=N)N)NC(=O)[C@H](CO)NC(=O)[C@H](CCC(=O)O)NC(=O)[C@H](CC(C)C)NC(=O)[C@H](CCC(N)=O)NC(=O)[C@@H](NC(=O)[C@H](CO)NC(=O)[C@H](CC(C)C)NC(=O)[C@H](CC(=O)O)NC(=O)[C@H](CO)NC(=O)[C@@H](NC(=O)[C@H](Cc1ccccc1)NC(=O)[C@@H](NC(=O)CNC(=O)[C@H](CCC(N)=O)NC(=O)C(C)(C)NC(=O)[C@@H](N)Cc1ccc(O)cc1)[C@@H](C)O)[C@@H](C)O)[C@@H](C)CC)C(=O)N[C@@H](CCC(=O)O)C(=O)N[C@@H](Cc1c[nH]c2ccccc12)C(=O)N[C@@H](CC(C)C)C(=O)N[C@@H](CCCCN)C(=O)N[C@@H](C)C(=O)NCC(=O)NCC(=O)N1CCC[C@H]1C(=O)N[C@@H](CO)C(=O)N[C@@H](CO)C(=O)NCC(=O)N[C@@H](C)C(=O)N1CCC[C@H]1C(=O)N1CCC[C@H]1C(=O)N1CCC[C@H]1C(=O)N[C@@H](CO)C(N)=O
B2: SEQ ID NO: 33 (peptide)
peptide: Y[Aib]EGTFTSDLSIQK([γGlu-Palmitoyl])EKRAAQDFIEWLKAGGPSSGAPPPS-NH2
modifications: N-terminus assumed
SMILES: CCCCCCCCCCCCCCCC(=O)N[C@@H](CCC(=O)NCCCC[C@H](NC(=O)[C@H](CCC(N)=O)NC(=O)[C@@H](NC(=O)[C@H](CO)NC(=O)[C@H](CC(C)C)NC(=O)[C@H](CC(=O)O)NC(=O)[C@H](CO)NC(=O)[C@@H](NC(=O)[C@H](Cc1ccccc1)NC(=O)[C@@H](NC(=O)CNC(=O)[C@H](CCC(=O)O)NC(=O)C(C)(C)NC(=O)[C@@H](N)Cc1ccc(O)cc1)[C@@H](C)O)[C@@H](C)O)[C@@H](C)CC)C(=O)N[C@@H](CCC(=O)O)C(=O)N[C@@H](CCCCN)C(=O)N[C@@H](CCCNC(=N)N)C(=O)N[C@@H](C)C(=O)N[C@@H](C)C(=O)N[C@@H](CCC(N)=O)C(=O)N[C@@H](CC(=O)O)C(=O)N[C@@H](Cc1ccccc1)C(=O)N[C@H](C(=O)N[C@@H](CCC(=O)O)C(=O)N[C@@H](Cc1c[nH]c2ccccc12)C(=O)N[C@@H](CC(C)C)C(=O)N[C@@H](CCCCN)C(=O)N[C@@H](C)C(=O)NCC(=O)NCC(=O)N1CCC[C@H]1C(=O)N[C@@H](CO)C(=O)N[C@@H](CO)C(=O)NCC(=O)N[C@@H](C)C(=O)N1CCC[C@H]1C(=O)N1CCC[C@H]1C(=O)N1CCC[C@H]1C(=O)N[C@@H](CO)C(N)=O)[C@@H](C)CC)C(=O)O
B3: SEQ ID NO: 34 (peptide)
peptide: Y[Aib]EGTFTSDLSIQK([γGlu-Palmitoyl])EKRAAQEFIEWLKAGGPSSGAPPPS-NH2
modifications: N-terminus assumed
SMILES: CCCCCCCCCCCCCCCC(=O)N[C@@H](CCC(=O)NCCCC[C@H](NC(=O)[C@H](CCC(N)=O)NC(=O)[C@@H](NC(=O)[C@H](CO)NC(=O)[C@H](CC(C)C)NC(=O)[C@H](CC(=O)O)NC(=O)[C@H](CO)NC(=O)[C@@H](NC(=O)[C@H](Cc1ccccc1)NC(=O)[C@@H](NC(=O)CNC(=O)[C@H](CCC(=O)O)NC(=O)C(C)(C)NC(=O)[C@@H](N)Cc1ccc(O)cc1)[C@@H](C)O)[C@@H](C)O)[C@@H](C)CC)C(=O)N[C@@H](CCC(=O)O)C(=O)N[C@@H](CCCCN)C(=O)N[C@@H](CCCNC(=N)N)C(=O)N[C@@H](C)C(=O)N[C@@H](C)C(=O)N[C@@H](CCC(N)=O)C(=O)N[C@@H](CCC(=O)O)C(=O)N[C@@H](Cc1ccccc1)C(=O)N[C@H](C(=O)N[C@@H](CCC(=O)O)C(=O)N[C@@H](Cc1c[nH]c2ccccc12)C(=O)N[C@@H](CC(C)C)C(=O)N[C@@H](CCCCN)C(=O)N[C@@H](C)C(=O)NCC(=O)NCC(=O)N1CCC[C@H]1C(=O)N[C@@H](CO)C(=O)N[C@@H](CO)C(=O)NCC(=O)N[C@@H](C)C(=O)N1CCC[C@H]1C(=O)N1CCC[C@H]1C(=O)N1CCC[C@H]1C(=O)N[C@@H](CO)C(N)=O)[C@@H](C)CC)C(=O)O
B4: SEQ ID NO: 35 (peptide)
peptide: Y[Aib]EGTFTSDLSIQK([γGlu-Palmitoyl])ESRAA[Aib]EFIEWLKAGGPSSGAPPPS-NH2
modifications: N-terminus assumed
SMILES: CCCCCCCCCCCCCCCC(=O)N[C@@H](CCC(=O)NCCCC[C@H](NC(=O)[C@H](CCC(N)=O)NC(=O)[C@@H](NC(=O)[C@H](CO)NC(=O)[C@H](CC(C)C)NC(=O)[C@H](CC(=O)O)NC(=O)[C@H](CO)NC(=O)[C@@H](NC(=O)[C@H](Cc1ccccc1)NC(=O)[C@@H](NC(=O)CNC(=O)[C@H](CCC(=O)O)NC(=O)C(C)(C)NC(=O)[C@@H](N)Cc1ccc(O)cc1)[C@@H](C)O)[C@@H](C)O)[C@@H](C)CC)C(=O)N[C@@H](CCC(=O)O)C(=O)N[C@@H](CO)C(=O)N[C@@H](CCCNC(=N)N)C(=O)N[C@@H](C)C(=O)N[C@@H](C)C(=O)NC(C)(C)C(=O)N[C@@H](CCC(=O)O)C(=O)N[C@@H](Cc1ccccc1)C(=O)N[C@H](C(=O)N[C@@H](CCC(=O)O)C(=O)N[C@@H](Cc1c[nH]c2ccccc12)C(=O)N[C@@H](CC(C)C)C(=O)N[C@@H](CCCCN)C(=O)N[C@@H](C)C(=O)NCC(=O)NCC(=O)N1CCC[C@H]1C(=O)N[C@@H](CO)C(=O)N[C@@H](CO)C(=O)NCC(=O)N[C@@H](C)C(=O)N1CCC[C@H]1C(=O)N1CCC[C@H]1C(=O)N1CCC[C@H]1C(=O)N[C@@H](CO)C(N)=O)[C@@H](C)CC)C(=O)O
B5: SEQ ID NO: 36 (peptide)
peptide: Y[Aib]EGTFTSDLSIQK([γGlu-Palmitoyl])EKRAA[Aib]EFIEWLKAGGPSSGAPPPS-NH2
modifications: N-terminus assumed
SMILES: CCCCCCCCCCCCCCCC(=O)N[C@@H](CCC(=O)NCCCC[C@H](NC(=O)[C@H](CCC(N)=O)NC(=O)[C@@H](NC(=O)[C@H](CO)NC(=O)[C@H](CC(C)C)NC(=O)[C@H](CC(=O)O)NC(=O)[C@H](CO)NC(=O)[C@@H](NC(=O)[C@H](Cc1ccccc1)NC(=O)[C@@H](NC(=O)CNC(=O)[C@H](CCC(=O)O)NC(=O)C(C)(C)NC(=O)[C@@H](N)Cc1ccc(O)cc1)[C@@H](C)O)[C@@H](C)O)[C@@H](C)CC)C(=O)N[C@@H](CCC(=O)O)C(=O)N[C@@H](CCCCN)C(=O)N[C@@H](CCCNC(=N)N)C(=O)N[C@@H](C)C(=O)N[C@@H](C)C(=O)NC(C)(C)C(=O)N[C@@H](CCC(=O)O)C(=O)N[C@@H](Cc1ccccc1)C(=O)N[C@H](C(=O)N[C@@H](CCC(=O)O)C(=O)N[C@@H](Cc1c[nH]c2ccccc12)C(=O)N[C@@H](CC(C)C)C(=O)N[C@@H](CCCCN)C(=O)N[C@@H](C)C(=O)NCC(=O)NCC(=O)N1CCC[C@H]1C(=O)N[C@@H](CO)C(=O)N[C@@H](CO)C(=O)NCC(=O)N[C@@H](C)C(=O)N1CCC[C@H]1C(=O)N1CCC[C@H]1C(=O)N1CCC[C@H]1C(=O)N[C@@H](CO)C(N)=O)[C@@H](C)CC)C(=O)O
B6: SEQ ID NO: 37 (peptide)
peptide: Y[Aib]QGTFTSDLSIQK([γGlu-Palmitoyl])DSRAAQDFIEWLKAGGPSSGAPPPS-NH2
modifications: N-terminus assumed
SMILES: CCCCCCCCCCCCCCCC(=O)N[C@@H](CCC(=O)NCCCC[C@H](NC(=O)[C@H](CCC(N)=O)NC(=O)[C@@H](NC(=O)[C@H](CO)NC(=O)[C@H](CC(C)C)NC(=O)[C@H](CC(=O)O)NC(=O)[C@H](CO)NC(=O)[C@@H](NC(=O)[C@H](Cc1ccccc1)NC(=O)[C@@H](NC(=O)CNC(=O)[C@H](CCC(N)=O)NC(=O)C(C)(C)NC(=O)[C@@H](N)Cc1ccc(O)cc1)[C@@H](C)O)[C@@H](C)O)[C@@H](C)CC)C(=O)N[C@@H](CC(=O)O)C(=O)N[C@@H](CO)C(=O)N[C@@H](CCCNC(=N)N)C(=O)N[C@@H](C)C(=O)N[C@@H](C)C(=O)N[C@@H](CCC(N)=O)C(=O)N[C@@H](CC(=O)O)C(=O)N[C@@H](Cc1ccccc1)C(=O)N[C@H](C(=O)N[C@@H](CCC(=O)O)C(=O)N[C@@H](Cc1c[nH]c2ccccc12)C(=O)N[C@@H](CC(C)C)C(=O)N[C@@H](CCCCN)C(=O)N[C@@H](C)C(=O)NCC(=O)NCC(=O)N1CCC[C@H]1C(=O)N[C@@H](CO)C(=O)N[C@@H](CO)C(=O)NCC(=O)N[C@@H](C)C(=O)N1CCC[C@H]1C(=O)N1CCC[C@H]1C(=O)N1CCC[C@H]1C(=O)N[C@@H](CO)C(N)=O)[C@@H](C)CC)C(=O)O

Columns and labels:
Assay in all cases: cell-based or functional assay
[1] = molecular target: T2, human GLP-1 receptor (human, UniProt P43220 24-463)
[2] = molecular target: T1, human GIP receptor
[3] = molecular target: human glucagon receptor (human, UniProt P47871 26-477)
[4] = molecular target: T2, human GLP-1 receptor; remark: listed apart in the source
[5] = molecular target: T1, human GIP receptor; remark: listed apart in the source

human glucagon receptor, sequence (P47871 26-477): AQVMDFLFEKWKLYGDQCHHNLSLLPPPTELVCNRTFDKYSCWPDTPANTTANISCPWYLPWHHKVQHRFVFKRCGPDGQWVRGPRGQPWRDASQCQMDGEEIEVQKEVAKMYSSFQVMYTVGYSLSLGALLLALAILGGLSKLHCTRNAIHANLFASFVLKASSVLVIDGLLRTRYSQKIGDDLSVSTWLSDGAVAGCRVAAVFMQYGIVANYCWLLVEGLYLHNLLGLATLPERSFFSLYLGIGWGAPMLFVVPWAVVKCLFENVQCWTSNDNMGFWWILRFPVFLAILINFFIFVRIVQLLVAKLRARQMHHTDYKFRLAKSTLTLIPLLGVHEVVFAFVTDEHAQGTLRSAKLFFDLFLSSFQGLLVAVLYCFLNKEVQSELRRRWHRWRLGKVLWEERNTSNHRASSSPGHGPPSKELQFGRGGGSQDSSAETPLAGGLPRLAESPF

Binder	EC50 hGLP-1 R [pM] [1] [pM]	EC50 hGIP R [pM] [2] [pM]	EC50 hGLUC R [pM] [3] [pM]	EC50 hGLP-1 R [pM] [4] [pM]	EC50 hGIP R [pM] [5] [pM]
B1	3.2	858			
B2			12900	6.4	9.1
B3			11600	4.6	22.2
B4			39100	6.9	7.3
B5			5780	3.4	6.4
B6			32	8.9	21.2
